The record followed here is patent US6521741 (FRANK KOENTGEN, dated 2003).

For this assay, the target named is T1, streptavidin (UniProt P22629 37-163, limits assumed).
T1 construct: Immobilised on column material; also called streptavidin column; streptavidin matrix
Briefly: streptavidin column pull-down, SDS gel. The source says:
FIG. 11 is a photographic representation of LHL purified via kappa-loaded streptavidin column as shown on a silver stained 20% w/v polyacrylamide SDS PHAST-gel. LHL= LHL alone plus streptavidin matrix; LHL-kappa=LHL purified on the kappa-loaded streptavidin matrix; kappa=kappa alone bound to streptavidin matrix.

T1 sequence (P22629 37-163 limits assumed): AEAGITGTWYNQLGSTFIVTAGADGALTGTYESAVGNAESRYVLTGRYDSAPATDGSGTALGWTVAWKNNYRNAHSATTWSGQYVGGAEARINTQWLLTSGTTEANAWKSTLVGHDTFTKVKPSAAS

B1: LHL (designed binder)
chain: APKDNTEEVTIKANLIFANGSTQTAEFKGTFEKATSEAYAYADTLKKDNGEYTVDVADKGYTLNIKFAGKEATNRNTDGSTDYGILQINSRWGGLTLKEEVTIKANLIFANGSTQTAEFKGTFEKATSEAYAYADTLKKDNGEYTVDVADKGYTLNIKFAG
notes: Expressed in E. coli from pASK75; LHL carries no strep-tag; also called growth factor LHL
As for B1, the binding result is listed as “no binding”.
